The nanobody polyreactivity screen of Harvey et al. (2022)

assay: yeast display, Sf9 membrane polyspecificity reagent, FACS + sequencing; frameworks hold sequencing errors
Procedure, shortened: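 Genes from sorted yeast were amplified by colony PCR, read by MiSeq 2 × 250 sequencing and filtered on CDR length. These cells carried a synthetic nanobody library in Saccharomyces cerevisiae BJ5465 and were sorted by FACS into low and high (top ~1%) gates on anti-HA and streptavidin fluorescence. Polyreactivity is labelled according to the gate of origin.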

| Sequence | polyreactivity (PSR sort gate) |
| --- | --- |
| QVQLVESGGGLVQAGGSLRLSCAASGSIFAYNAMGWYRQAPGKVREFVAVITRSDDSTYADSVKGRFTISRDNAKNTVYLQMNSLKPEDTAVYYCAAQPFDIDGGYRVDYWRQGTQVTVSS | low polyreactivity |
| QVQLVDSGGGLVQAGGSLRLSCAASGSTFYWYPMGWYRQAPGKERELVAAISRSSGSTYYADSVKGRFTISRDNAKNTVYLQMNSLTPEDTAVYYCAADYYLRSFVWTAYDSWGHGTQVTVSS | high polyreactivity |
| QVQLVESGGGIVQEGRSLSISCAASGSTFYTYAMGWYRPAPGKERELVAAITQSGGRTYYADSVKGRFTISRDNANNTVYLEMNSLKPEDTAVDYCNAPPYTGYDWGQGTQVSVSS | high polyreactivity |
| QVKLVESGGGLVQAGGSLRLSCAASGFIFIDNTMGWYRQEPGKERELVAGINTSGASTHYADSVKGRFTISRDYAKNTVYLQMNSLKPEDTAVYYCNRGDLPKADYNDYSYDYDYRGQGTQVTVSS | low polyreactivity |
| QVQLVESGLGLVQAGGSLRISCAASGLTIYYYAMGWYRQAPGKERELVAAITWRGGSTYYADSVKGRFTISRDNAKNTVYLQMNSLKPEDTAVYYCNKAYKYIRQQPYRTKRYDYWGQGTQGTVSS | low polyreactivity |
| QVQLVESGGGLVQAGGSLRLSCAASGRTLYWYAMGWYRQAPGKERQLVAVISGSGASTYYADSVKGRFTISRDNAKNTVYLQMNSLKPEDTAVYYCNARDYRRYGRYHWQDYDYWGQGTQVTVSS | high polyreactivity |
| QDQLVESRGGLVQAGGSLRLSCAASGFTFPSYAMGWYRQAPRKERELVAAITRSGGRTYYADSVKGRFTISRDNAKNTVYLQMNILKPEDTAVYYGAADRAAPRYDYWGQGTQVTVSS | high polyreactivity |
| QVQLVESGGALVQAGGSLRLSCAASGRTFYFYTMGWYRQAPGKERDLVAAISWSGGSTYYADSVKGRFTISRDTAKNNFYLQMKRLKPEDTAVYYCAASSRWEQSKDQFYYWGQGTHVTVSS | low polyreactivity |
| QVQLVESGGGLVQEGGSLRLSCAASGSIFLFYAMGWYRPAPGKERELVARITSSGGTTYYADSVKGRFTISRDNAKNTVYLQMNSLKPEDTAVYYCAAAYIRRSPYYYWGQGTQVTVSS | high polyreactivity |
| QVQLVESGGGLVQAGGSLRLSCAASGRIFRYYVMGWYRQAPGKERELVAAISRSGGTTYYADSVKGRFTISRDNAKNTVYLQMNSLKPEDTAVYYCAAVYGRDPGDYWGQGTQVTVSS | high polyreactivity |
| QVQLVESGGGLVQAGGSLRLSCAASGSTIPSNAMGWYRQAPGKERELVASITYSDGTTRYADSVKGRFTISRDNAKNTVYLLMNSLKPEDTAVYYCNAVYYREGMDYWGLGTQVTVSS | low polyreactivity |
| QVQLVESGGGLVQAGGSLRLSCAASGLTFTSYAMGWYRQAPGKERELVAAITSGGSTYFADSVKGRFTISRDNAKNTVYLQMNSLKPEDTAVYYCNVTVYTRWYRSHSFWSTFRMDYWGQGTQVTVSS | low polyreactivity |
| QVQLVESGGGLVQAGGSLRLSCAASGRTFIRYTMGWYRQASGKERELVAAITSTGRTYYADSVKGRFTFSRDNAKNTVYLEMNSLKPEDTAVYYCAAKQSWEVYDYWGQGTQVTVSS | low polyreactivity |
| QVQLVESGGGLVQAGGSLLLSCAASGFTLEKNAMGWYRTAPGKERELVADISSTDSTNYADSVKGRFTISRDNAKITVYFQMNSVKPEDTAVYYCGRYDGPGTEEFDYWGQGSQVTVSS | low polyreactivity |
| QVQLVESGGGLVQAGGSLRLSCAASGRTFLPNPMGWYRQAPGKERELVAVITSGGSTNYADSVKGRFTISRDNAKNTVYLQMNSLKPEDTAVYYCAADRYSYFYIGYDYWGQGTQVTVSS | low polyreactivity |
| QVQLVESVGGLVQAGGSLRLSCAASGRTLRYYAMGWYRQAPGKERELVATITRRSGSTYYADSVKGRFTISRDNAKNTVYLQMNSLKPEDTAVYYCNAVWRPGERDYWGQGTQVTVSS | low polyreactivity |
| QVQLVESGVGLVQAGRSLSLICAASGSTFFLYGMGWYIQAPGKERDLVAAITWNGGSTYYADSVKGRFTISRDNAKNTVYLQMKSLKPEDTAVYYCAADYYGFFSTPYDYWGQGTQVSVSS | low polyreactivity |
| QVQLVESGGGLVQAGGSLRLSCAASGLTFYYYAMGWYRQATGKERELVATITRSGGGTYFADSVKGRFTISRDNAKNTVYLQMNSLKPEDTAVYYCAADLSWYVLFSGLYDYWGQGTQVTVSS | high polyreactivity |
| QVQLVESGGGLVQAGGSLRLSCAASGSISVRNVMGWYRQAPRKERELVATIRRTGGSTSYADSVKGRFTISRDNAKNTVYLQMNSLKPEDTAVYYCAAVGYTTYRRYDYWGQGTQVTVSS | low polyreactivity |
| QVQLVESVGGLVQAGGSLRLSCDASGRIFRRYAMGWYRQAPGKERELVAAISSSGDSTYYADSVKGRFTISRDNAKNTVYLQMNSLKPEDTAVYYCAAVTRRYVLSTFYYWGQGTQVTVSS | high polyreactivity |
| QVQLVESGGGLVQAGGSLRLTCAASGFIYYYNAMGWYRQAPGKERQLVAAISASGDRTYYADSVKGRFTISRDNAKNTVYLQMNSLKPEDTAVYYCAARSQGARYSSRRRFGDYWGQGTQVTVSS | high polyreactivity |
| QVQLVESGGGLVQAGGSLRLSCAASGSTFSWYAMGWYRQAPGKERELVASISFSGGDTSYADSVKGRFTISRDNAKNTVYLQMNSLKPEDTAVYYCGKEYKYETDTKFDYWGQGTQVTVSS | low polyreactivity |

| Sequence | polyreactivity (PSR sort gate) |
| --- | --- |
| QVQLVESGGGLVQAGGSLRLSCAASGRISIWYDMGWYIQAPGKEREFVASITSGGSTYADSVKGRFTISRDNAKNTVYLQMNSLKPEDTAVYYCAADEAPYVPSEQRHSRFSHWGQGTQVTVSS | low polyreactivity |
| QVQLVESGGGLVQAGGSLRLSCAASGIIIQINAMGWYRQAPGKERELVAAITIDGTTNYADSVKGRFTISRDNAKNTVYLQMNSLKPEDTAVYYCARRRSVYVWEPYQYDYWGQGTQVTVSS | low polyreactivity |
| QVQLVESGGGLVQAGGILRLSCDASGRIFYSYAMGWYRQAHGKERVLVAAIDESVGSKYYADSVKGRFTISRDNAKNTVYLHMNSLKREDTAVYYCAADYLLVLFYYWGQGTQVTVSS | low polyreactivity |
| QVQLVESGGGLLQAGGILRLSCAASGRIFFANAMGWYRQAPGKERELVASITRRSGGTYYADSVKGRFTISRDNAKNTVYLQMNSLKPEDTAVYYCAARYTFPKALYYYWGQGTQVTVSS | high polyreactivity |
| QVQLVESGGGLVQAGGSLRLSCAASGITFVRYTMGWYRQAPGKEREFVAGITRGGSTYYADSVKGRFTISRDNAKNTVYLQMNSLKPEDTAVYYCAARPRFLRASVEYDYWGQGTQVTVSS | high polyreactivity |
| QVQLVESGGGLVQAGGSLRLSCAASGFISYYYAMGWYRQAPGKERELVAAITKSGGSTYYADSVKGRFTIARDNAKNTVSLQMNSLKPEDTAVYYCAAVRSTRNSTSRLYGYWGQGTQVTVSS | low polyreactivity |
| QVQLVESGGGLVQAGGSLRLSCAASGRTFGYYAMGWYRPAPGKERELVASITGGGSTNYADSVKGRFTISRDNAKNTVYLQMNSLKPEDTAVYYCAAETITDDYYEYDYWGQGTQVTVSS | low polyreactivity |
| KVQLVESGGGLVQAGGSLRLSCAATGRIFRPKAMGCYIQAPGKEREMVAAIRSTVGSTFYEYSVKGRFSISRDNAKNTVYLEMNRLKREDTAVYYCAGGTSRQFYYWGQGTQVTVSS | low polyreactivity |
| QVQLVESGGGLVQAGGSLRLSCAASGRILPWYAMGWYRQAPGKERELAARIRSTDSTNYADSVKGRFTISRDNAKNTVYLQMNSLKPEDTAVYYCAKVQWGFPYAWLGSDYWGQGTQVTVSS | low polyreactivity |
| QVQLEESGGGLVQAGGSLRLSCAASGFTFYYYTMGWYRQAPGKERELVAAITWRGGSTNYADSVKGRFTISRDNAKNTVYLQMNSLKPEEPAVYYCAAVTYWFWPGMDYWGQGTQVTVSS | low polyreactivity |
| QVQLVESGGGLVQAGGSLRLSCAASGRTFDYYVMGWYRQAPGKERELVAAISRRGGSTYYADSVKGRFTISRDNAKNTVYLQMNSLKPEDTAVYYCAAQYYYAREDYWGQGTQVTVSS | high polyreactivity |
| QVQLVESGGGLVQAGGSLRLSCAASGSIFVSYTMGWYRQAPGKERELVAAITRSGGSTYYADSVKGRFTISRDNAKNTVYLQMNSLKPEDTAVYYCARVSRRGPGYTTLYSRYDYWGQVTQVTVSS | low polyreactivity |
| QFQLVESGGGLVQAGGSLRLSCAASGITFYGNAKGWYRQAPGKVREFVAAITVDGGSTYAVSVKGRFTISRDNAKNTVYLQMNSLKPEDTAVYYCNKAYLRRSLKSGYPYDSWGQGTQVTVSS | low polyreactivity |
| QVKLVESGGGLVQSGGSLRLSCAAYGRIFATNAMGWYRPAPGKERELVATITRSAGRTYYADSVKGRFTISRVKAKHSVYLQMNRLKPEDTAVFYFAASYWDTGPGYREYDYWGEGTQVTVSS | low polyreactivity |
| QVQLVESGGGLVQAGGSLRLICAASGIIFLYYAMGWYRQAPGKEWELVAAISSGVSTYYADSVKGRFTISRDNAKNTVYLQLNSLKPEDTAVYYCNADYYQLNSGMYYWGQGTQVTVSS | low polyreactivity |
| QVQLVESGGGLVQAGGSLRLSCAASGFTFAVYAMGWYRQAPGKEREFVADITYDGGSTYYADSVKGRFTISRDNAKNTVYLQMNSLKPEDTAVYYGAAERLGAFQTPSNVSKYYYWGQGSQVTVSS | low polyreactivity |
| QVQLVESGGGIVQAGGSLRLSCAASGSTFDYYAMGWYRQAPGKEMELVAGISASGGSTYYADSVKGRFTISRDNAKNTVYLQMNSLKPEDTAVYYWASYYKPPGYDYWGQGTQVTVSS | low polyreactivity |
| QVQLVESGGGLVQAGGSLRLSCAASGFTFGNYVMGWYRQAPGKERELVAAISKRGTSTYYADSVKGRFTISRDNAKNTVYLQMNSLKPEDTAVYYCAADGVYSHKDGLWGQGTQVTVSS | high polyreactivity |
| QVQLVESGGGLVQAGGSLRLSCAASGGIFFINAMGWYRQAPGKERELVAAISISDGSTYYADSVKGRFTISRDNAKNTVYLQMNSLKPEDTAVYYCAAEGFDWDSPEMEYWGQGTQVTVSS | low polyreactivity |
| QVQLVESGGGLVQAGGSLRLSCAASGSIFAANAMGWYRQAPGKEREFVASISRSGGSTYYADSVKGRFTISRDNAKNTVYLQMTSLKPEDTAVYYCATRTRIYSARDHYGYWGQGTQVTVSS | low polyreactivity |
| QVQLVESGGGLVQAGGSLRISCAASGLIFGINAMGWYIQAPGKERELVATITSGGGTNYADSVKGRFTISRDNAKNTVYLQMNSLKPEYTAVYFCALDSASDTIYDYWGQGTQGTVSS | low polyreactivity |
